In article PMC9303997:

What was measured:
full-length CHMP2A = target: T1, full-length CHMP2A (UniProt O43633)
T1 sequence: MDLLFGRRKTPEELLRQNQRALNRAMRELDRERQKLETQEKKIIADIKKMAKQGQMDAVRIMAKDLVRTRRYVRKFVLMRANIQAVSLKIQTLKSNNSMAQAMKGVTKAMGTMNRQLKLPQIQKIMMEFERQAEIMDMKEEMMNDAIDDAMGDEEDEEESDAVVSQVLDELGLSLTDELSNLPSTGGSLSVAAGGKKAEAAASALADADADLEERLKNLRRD

[1] = target: T2, full-length human CHMP1B with a single cysteine mutation at position 2 (CHMP1B^S2C) (human) (UniProt Q7LBR1)
T2 sequence: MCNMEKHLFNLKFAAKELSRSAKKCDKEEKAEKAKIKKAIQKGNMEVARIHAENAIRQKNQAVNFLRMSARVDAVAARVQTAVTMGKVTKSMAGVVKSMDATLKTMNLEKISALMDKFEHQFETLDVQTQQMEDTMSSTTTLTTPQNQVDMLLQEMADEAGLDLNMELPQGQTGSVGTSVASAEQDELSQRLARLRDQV

B1: Human VPS4B with a single mutation at position 2 for maleimide fluorophore labeling (VPS4B^S2C) (enzyme)
chain: MCSTSPNLQKAIDLASKAAQEDKAGNYEEALQLYQHAVQYFLHVVKYEAQGDKAKQSIRAKCTEYLDRAEKLKEYLKNKEKKAQKPVKEGQPSPADEKGNDSDGEGESDDPEKKKLQNQLQGAIVIERPNVKWSDVAGLEGAKEALKEAVILPIKFPHLFTGKRTPWRGILLFGPPGTGKSYLAKAVATEANNSTFFSISSSDLVSKWLGESEKLVKNLFQLARENKPSIIFIDEIDSLCGSRSENESEAARRIKTEFLVQMQGVGVDNDGILVLGATNIPWVLDSAIRRRFEKRIYIPLPEPHARAAMFKLHLGTTQNSLTEADFRELGRKTDGYSGADISIIVRDALMQPVRKVQSATHFKKVRGPSRADPNHLVDDLLTPCSPGDPGAIEMTWMDVPGDKLLEPVVSMSDMLRSLSNTKPTVNEHDLLKLKKFTEDFGQEG
modifications: LD655 maleimide dye on the cysteine introduced at position 2 (labelled during the purification)
With B1 the rate of ATP hydrolysis by VPS4B (malachite green; 0.2 uM enzyme, 2 uM ESCRT-III subunit, 2 mM ATP, 10 min, 37 °C) (ATP/VPS4B·min) (full-length CHMP2A) was 12.7 and the rate of ATP hydrolysis by VPS4B (malachite green; 0.2 uM enzyme, 2 uM ESCRT-III subunit, 2 mM ATP, 10 min, 37 °C) (ATP/VPS4B·min) [1] was 3.4.
